# T1: pMAL–PP2AA–His (Toxoplasma gondii PP2A A subunit) (Toxoplasma gondii, UniProt S8EX93 1-766)
# T1 construct: PP2A A subunit of Toxoplasma gondii (TGME49_315670), amplified from Toxoplasma cDNA; printed length 766 aa, ~130 kDa with the pMAL tag; also called PP2A scaffold (A) subunit; source: E. coli, purified (MBPSep Dextrin Agarose Resin, eluted with 10 mM maltose); not shown: MBP (from the vector pMAL)
# T1 sequence (looked up): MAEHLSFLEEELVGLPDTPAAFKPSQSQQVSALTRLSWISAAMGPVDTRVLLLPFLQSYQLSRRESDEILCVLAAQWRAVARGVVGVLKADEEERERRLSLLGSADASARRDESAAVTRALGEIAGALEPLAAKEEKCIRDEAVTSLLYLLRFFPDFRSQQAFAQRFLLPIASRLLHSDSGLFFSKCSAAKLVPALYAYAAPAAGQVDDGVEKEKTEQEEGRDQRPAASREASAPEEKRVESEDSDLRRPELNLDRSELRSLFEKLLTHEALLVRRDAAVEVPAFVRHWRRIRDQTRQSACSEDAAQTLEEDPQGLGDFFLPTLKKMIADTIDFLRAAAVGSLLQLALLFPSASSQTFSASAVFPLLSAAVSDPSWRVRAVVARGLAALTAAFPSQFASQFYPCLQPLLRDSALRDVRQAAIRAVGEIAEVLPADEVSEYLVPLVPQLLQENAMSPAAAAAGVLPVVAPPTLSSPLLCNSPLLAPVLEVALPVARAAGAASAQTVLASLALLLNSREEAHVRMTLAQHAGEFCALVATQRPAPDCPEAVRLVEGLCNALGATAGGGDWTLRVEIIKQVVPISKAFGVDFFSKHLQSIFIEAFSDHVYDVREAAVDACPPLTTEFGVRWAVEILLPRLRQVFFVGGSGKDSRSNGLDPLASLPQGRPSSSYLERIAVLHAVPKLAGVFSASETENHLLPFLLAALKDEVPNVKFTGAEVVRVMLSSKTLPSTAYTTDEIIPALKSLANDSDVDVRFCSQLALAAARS
# B1: pMAL–PP2AC–HA (Toxoplasma gondii PP2A C subunit) (enzyme, UniProt A0A125YNB3 1-347, looked up)
# chain: MSGATPGAVAALQPASAAPALFTIPADVAPSDLPDHYLGQEELRGIDKQMEKLFKCEKLDEEEVRSLCAVLKDILVQEANVQPVRTPVTVVGDIHGQFHDLLEIFKCAGTCPSVNFLFLGDYVDRGLNSVESVSLVFLLKVRYRHRVTLIRGNHESRQITQVYGFYDECLRKYGNANVWNYFTDVFDYLPLSALIEDQIFCPHAGLSPTIETLDHVRLLERFQEVPHEGPMCDLLWSDPEEQMPGWGMSPRGAGYTFGQDISEKFNHVNGLKLIARAHQLIMEGFQWSQANNVVTIFSAPNYCYRCGNQAAIMKIDEHMNYTFIQFNPSLLQASGADMQKRIPDYFL
# notes: PP2A C subunit of Toxoplasma gondii (TGME49_224220), amplified from Toxoplasma cDNA; printed length 347 aa, ~80 kDa with the pMAL tag; also called PP2A catalytic (C) subunit; source: E. coli, purified (MBPSep Dextrin Agarose Resin, eluted with 10 mM maltose); not shown: MBP (from the vector pMAL)
# Biological target: T1, pMAL–PP2AA–His (Toxoplasma gondii PP2A …)
# Assay: pull-down; anti-His or anti-HA magnetic beads washed with TBS, incubated with the tagged protein 5 h at 4 °C, then with the target protein 5 h; washed, eluted, Western blot
# Conditions: both partners purified
binder,measurement,value
B1,binding result,binds

# — paper PMC12155429, “PTPA Governs Stress-Responsive Differentiation and Metabolic Homeostasis in Toxoplasma gondii” (Cells, 2025)
